Assay results taken from patent publication US5658784, “Nucleic acid encoding transcription factor p300 and uses of p300” (Dana-Farber Cancer Institute, Inc., dated 1997).

Target: p300 (endogenous human E1A-associated 300 kD protein) (human)
Experiment: co-immunoprecipitation with anti-E1A M73 from 35S labelled infected U-2 OS cells

B1: E1A proteins of adenovirus dl646 (missing amino acids 30-85) (other)
chain: MRHIICHGGVITEEMAASLLDQLIEEVLAAPGSPEPPHLSRQPEQPEQRALGPVSMPNLVPEVIDLTCHEAGFPPSDDEDEEGEEFVLDYVEHPGHGCRSCHYHRRNTGDPDIMCSLCYMRTCGMFVYSPVSEPEPEPEPEPEPARPTRRPKMAPAILRRPTSPVSRECNSSTDSCDSGPSNTPPEIHPVVPLCPIKPVAVRVGGRRQAVECIEDLLNEPGQPLDLSCKRPRP
- binding result: no binding
